Consider three substances from publication PMC3714538.

As usually defined, the Kd is a measure of binding affinity in units of concentration. A high value points to weaker binding.

The target of this experiment is LC3B (protein of the ITC experiments) (UniProt Q9GZQ8). In words: ITC. In general terms: ITC needs no label: the signal is the heat of the interaction.
Substance “OPTN peptide LIR_Ptot (all serines phosphorylated) (from UniProt Q96CV9 169-184)” displayed a Kd of 5 µM.

Substance “OPTN peptide LIR_P1 (pSer177) (from UniProt Q96CV9 169-184)” yielded a Kd of 13 µM. This Kd is about 2.6-fold higher than that of the substance before.

“OPTN peptide LIR_P0 (no phosphorylation) (from UniProt Q96CV9 169-184)”: the Kd was 67 µM.
